Measured values reported in US20070105771A1.

What was measured:
Assay in all cases: peptide microarray
[1] = target: T1, human CD26-derived 13 mer peptide 29 (human)
T1 sequence (peptide): DYSISPDGQFILL

[2] = target: T2, human CD26-derived 13 mer peptide 91 (human)
T2 sequence (peptide): FNDTEVPLIEYSF

[3] = target: T3, human CD26-derived 13 mer peptide 31 (human)
T3 sequence (peptide): SPDGQFILLEYNY

[4] = target: T4, human CD26-derived 13 mer peptide 125 (human)
T4 sequence (peptide): GDHYLCDVTWATQ

[5] = target: T5, human CD26-derived 13 mer peptide 13 (human)
T5 sequence (peptide): QENNILVFNAEYG

[6] = target: T6, human CD26-derived 13 mer peptide 16 (human)
T6 sequence (peptide): VFNAEYGNSSVFL

[7] = target: T7, human CD26-derived 13 mer peptide 121 (human)
T7 sequence (peptide): TAPASMLIGDHYL

[8] = target: T8, human CD26-derived 13 mer peptide 69 (human)
T8 sequence (peptide): RITWTGKEDIIYN

Mean Signal Value [1]: 2.16
Mean Signal Value [2]: 2.3
Mean Signal Value [3]: 2.33
Mean Signal Value [4]: 1.8
Mean Signal Value [5]: 1.94
Mean Signal Value [6]: 1.92
Mean Signal Value [7]: 2.08
Mean Signal Value [8]: 2.45
B1: rhuMAb 411 (antibody, human IgG1, kappa, V domains shown)
VH: EVQLVESGAGVKQPGGTLRLTCTASGFSLTTYGVHWVRQAPGKGLEWVGVIWGDGRTDYDAAFMSRVTISKDTSKSTVYLQMNSLRAEDTAVYYCMRNRHDWFDYWGQGTTVTVSS
VL: DILLTQSPSSLSATPGERATITCRASQGIRNNLNWYQQKPGQAPRLLIYYSSNLQSGVPSRFSGSGSGTDFTLTISRLQPEDVAAYYCQQSIKLPFTFGSGTKVEIKR
